# Reference: patent US6303653
# System: HNF-4alpha (transfected expression vector)
# Experiment: cell_activity
# Details: COS-7 cotransfection, no added fatty acids
substance,measurement,value
one to three C3P copies enhancing TK promoter CAT reporter,activity (fold activation),7
